Measurements published in the DeepSol protein solubility set.

Assay: soluble on expression in E. coli; label from the status in PepcDB or PDB records

Sequence | soluble on expression in E. coli
MGSDKIHHHHHHMKISGHTSVVVAEKLLSEAKFSNLTQSAVVMISQRLCLGIILTGFITNQALAAEPKQSVVPISSVLATNYNKTQIHVTPVHSLVPKLSTKRANFKQETTTQDSVYLADWVLDSGDNQQMPFAIVDKKAAKVYVFDALGQLTGAAPALLGLAVGDDSIPNIGNMALASIKPEQRTTPAGRFVVALGKNIHNKEVLWIDYDAAISLHRVVTSSPKERRLQRLESQNLLERRISYGCINVPVNFYDQVVSPAFTGTNGVVYVLPDTRSIQEVFGSYSEPPRVYRRQIYLSQAAMPDRVKLS | not soluble
GANETTKQESPVVDTDINAVTNYIVGMCQKFLQKGEKVTPSSKLEELRTREDRLWDCLDTVEFVLDVEEIFDVTVPDEVADNFQTLQEIADFVVSERAKAGKFMKDQ | soluble
MKKITLLSGILFLIGYSDAEVFESQNVRVKRNDFTNNYGYGPFGIGPTNGGFDSYGFYRDKFYNSGLPPLYSFASYRNYYHEISFHKNKYGQPAPTDFETLQQERYGPYYDGVWGYADHSKNWFGKR | not soluble
MDGALLIDKPKGITSTEVVERVKEKLKARKAGHTGTLDPIATGLLIILINKATRFSQFFIGMPKTYRFTVKFGAETDTYDAQGKVVETYEGELNCDKLKEVLNEFRGEILQTPPPFSAKKIKGRRAYELARKGKKVELKPVKITVYSLELLSCNPREKEAEFLAEISSGGYVRSLAYDIGKKLGIGGYMKELRRLKIDEISVEEAVSLEEFLSSENPEEYVLPVDTLFRVIPEVRLNTFEAGKILQGKRILIKNYDYEGLVKIYEDSKFIGIGELKGGVLSPKRLLV | soluble
MDLQIIQNKIFEVRGCRVMLDFHLAELYQVETRALKQAVKRNLSRFPSDFAFQLTKDEWQGLITNCDKFPENIRHTPTPPLAFLEQGVAMLSSVLRSQTAIDVNISIMRAFVLMRQMSIGYEELLKRIEELEQSTDAQFSEVYQALTQLLSKPDPKPRKPIGYRTYDE | not soluble
MKLTPKELDKLMLHYAGELAKKRKEKGIKLNYVEAVALISAHIMEEARAGKKTAAELMQEGRTLLKPDDVMDGVASMIHEVGIEAMFPDGTKLVTVHTPIEANGKLVPGELFLKNEDITINEGKKAVSVKVKNVGDRPVQIGSHFHFFEVNRCLDFDREKTFGKRLDIAAGTAVRFEPGEEKSVELIDIGGNRRIFGFNALVDRQADNESKKIALHRAKERGFHGAKSDDNYVKTIKE | soluble
MIELDQTNIPKHVAIIMDGNGRWAKQKNKMRIFGHTNGVTAVRKAVAYARQIGVEVLTLYAFSSENWSRPEQEISALMSLFMQALDREVKKLHKNNICLKIIGDVSRFSETLQEKIKKAENLTEKNTALTLNIAANYGGCWDIIQAAKQIAEKVKKEEMSVSDINNSTFQHHLATQNAPPVDLLIRTSGEQRISNFLLWQIAYAELYFSDVLWPDFNQLEFNRAIASYQQRHRRFGGTE | not soluble
NDLVSFTLRGNASWNRDKIIENDEAPKPYPWMEKRGTNVFSQWGLIADGLFTSEEEIEKHATQFGQVYIGDIKYRDLNNDKKIDSNDICRIGQGTIPKYNYGFGFDVQIGYFSVSALFQGAADVTTCLSGNSIIPFSSQAGIDNLFDNIEDRWSPDDPTNEDVFYPRLHYGNSNNSNNYRASTWWLRNMDYLRLKQFNIAYNLPENTLKSVGVKGARIYLMGTNLLTFSKFKLWDPEVYSSNGAAYPNVMSCSLGVNFSF | not soluble
MTETELSERLRTWLSQDNERMRALELVLQCAQVHDMPQWCIAAGFVRNLVWDKLHGFDRQPLNDIDLIYYCPLDARPERDWAIEACLRACAPELPWSVKNQARMHLKNHDNPYQSSSDAMAYWPEMETAVGVSLNPTLKTSASVIENLQIVAPFGLASLLALTLTRNPRRSLAVFEQRIIAKGWLSQYPQLVLAN | soluble
MGSDKIHHHHHHMAQIIAVHSFRGGTGKSNLIANMAATMALQGQRVGIIDTDIQSPGIHVIFGINENKMERTLNDYLWGYCNIKDAAYDVTEALAIEQGNTSTVKGSLHLVPCSIKASEIARVLREGYDVVRLNDGFQEFIRSLKLDYLLIDTHPGLNEETLLSIGISNVLVILLRPDHQDFQGTAVTVDVARKLKVPKMLLVINKVLPSLNFLDLQQQVEKIYNAPVVGILPLSEDMVQLASKGLFSLRYPQHPISQTIKGITNQIASLVVSH | not soluble
MSMSVILRKSLIEVLNKKNEKKKDVAREISTSQQSLSDWTSQNNVKPVTIENALRLSDHFRDSTFTMEVIHQFFGMFKTCDGDVYRKDPSSLDRLQKIESNERKALKHDIERIVLKNPEYLSEQDISKIVAYANEYLDEVIVEITLLSSLCDLASIDIRYLSEQRFPYWEQLGYMRKENTNGTRSY | not soluble
GPGSMLATFFGRRAEPEFKVVCDPESIVFPVDFDAPDYPYEQAFEEADAYVRKLPTRGVVPVSDVLRLQFYSLFKQATEGDINEDVKQPSMLRDWEGYWKVYGWRKCRGMTRERARDLYTDLLDLQIRKHCSFVWGAPSGEDRWAAFYDGVRIIRNLPKGGYYLPDSLRAHFYALYKQALVGNLSDFQKTPAAFSEKYKWLRSRPSKAGFDQMRYDEWAALKGMSCEKAKRMYCKDIFKSAAMCGYVWAPPGTADHLKVIGDQTSAKTLKKRTDADEHAERIAGATHLTMEEAMDAVGVHLSMVERLTMHSFTKKEQTAAARTAEEAAGRKKREEKAEVKRRGVAGSHVDLNKGMAFARPKAEESTEATVTEKTEETEAKEDAERRLEAQGTDKDPQSVCNLCGSFAKDIASDAEAPEKVKESGAAAAAAKDCTAASTSPAPVPKLQASAKVAEASKILPSKSEPVLKKEPAVKGTSKGAKSSHQAKNGAKKGPAGKRTKAN | soluble
MGSDKIHHHHHHMDCNGSGGSSDDDKPLHHDGGVRMKFFRSVGEVFGYSPFRSLAQHARMCGRAVGLLQQQFEALRRGNYEEVEELREEIDELEHHADQIKEEIRGNVTKSLMLPVDRHDLLEFLKVQDDILNNCEHVGHMVTFRKVSAPEDVWDEFLVLLSKLMEIVNNYEEMVERIMQLVETSFSKKEVNRALEYVPIIEQLEHECDLIQIGLHTKLFNLENSNPLDIQLMVTWVVHLGYVANAAARASDRFRIMILGR | not soluble
MMTTIVMESTTEKVCEASSDACPKLETMFDATPQIVEIDGCQDITCPGNAVPYLVATFPASEIEPFYPMDVVNPFNVIPPSTISGSVIDYYGKICDGGVWKFTKYPDGIHVNDSDTIMGEDGSLTGKKSTLLVVTWYGFC | not soluble
MAHHHHHHMLSTACRAPVRGRAYCGCNRGLVSFSFYSTFAGDRRGAGGDETSGANSGGSGDSGETPKASKATVEERRRMAKSWENAFFGRVHYEPGMHDRYQAALDAEVEEHATLDEKDRCDRLPNWPDDEETPLHEFLQLSDAAKKRYIVRRLTMGERRINYAPYYGSLLMMQHLNLGELMISDAEHLVRESGWMTECVASKIEAVRECASKIKFEYDLD | not soluble
MNVDARVGVAVDGAQSALNTATTVHSSVVMTQIKPQAKLGTFQNLLAGGIAGAISKTCTAPLARLTILFQLQGMQSEGAVLSRPNLRREASRIINEEGYRAFWKGNLVTVVHRIPYTAVNFYAYEKYNLFFNSNPVVQSFIGNTSGNPIVHFVSGGLAGITAATATYPLDLVRTRLAAQRNAIYYQGIEHTFRTICREEGILGLYKGLGATLLGVGPSLAINFAAYESMKLFWHSHRPNDSDLVVSLVSGGLAGAVSSTDDKLFDAHNYVATYPLDLVRRRMQVEGAGGRARVYNTGLFGTFKHIFKSEGFKGIYRGILPEYYKVVPGVGIVFMTYDALRRLLTSLPD | soluble
RLTRKEEWLREVLSSIREAIIVTNASGEIVLANPAASRLFMIEAARKRSIPVTNIEDAAMRELFERVQKRQSGIYNEELTAMTSKGKRTLKVTAVPVMRRGALFDGTVLVINDVT | not soluble
KGEITYLNQAWASITGFSISECMGTMYNDYFIKEKHVADHINTQIQNKASSGMFTAKYVTKNGTIFWGEVHYKLYYDRDDQFTGSLGTMSD | not soluble
EVVRLGDVLELCQYGLSVPLKDKGKYPVIRMDEIVNGYVVTDIAKYADLDEETFKNFKLEKGDVLFNRTNSLELVGRTGIFLLDGYYVFASYLIRLRPKHEILHPHFLTFYLIFSQSRLKQLATVAVHQANINATNLKKFKIPLPPLPEQQKIAEILSTV | soluble
ISEFDYSARFVLSDGKRKILRYPNPTNSLSSDVYYNGQILGDIWGYKTVGIAQTQEEMNAHLANGGTPNWGTNWGAGDVMYANLDGKEGVNNGSNTLEDHGDLTIIGNNTPRYNFGLTLTGAWKGFDFSVFLQGVMKRDYWLDGPYFWGANGGLWQSTAFKEHMDYWRPEGDPLGANTNAYYPKPYFNTDKNQKVQSGYLQNAAYCRLKNAQIGYTLPKTWTRKAAMESVRVYVSGDNLVTFSGISGVFDPELLGSDWGDGKLYPLQRTISIGLNVNF | not soluble
MGSDKIHHHHHHMKALMFGWEFPPHILGGLGTASFGLTRGMAMQPDMDITFCIPKPWGDEDQSFLKIVGVNQVPIVWKDVDREYVQQRVSKAGMNADQYYKYRDHIYADFSYRHVTDLGCLEFSGRYPDNLLEEINNYSIVAGVIARTEEYDIIHAHDWLTYPAGIHAKNVSGKPLVIHVHATDYDRSRGNVNPDVYAIEKNGMDNADHIITVSNLTRQTVIEKYHQDPAKVTTVHNAVEPLSPEILAIPDKKGVKDKVITFLGRITMQKGPEYFVEAAAKVLAKAPYARFVMAGSGDMMDQMIRLAAARNISDRFHFTGFMKGKQVYEVLKASDVYVMPSVSEPFGISPLEAMQCGVPSIISKQSGCAEILDYAIKVDYWDIEALADAMYSIITYPAMHEFLKVEGKKEVDNIKWEYAGQKVRRIYDNVIGNK | not soluble
MRERRYSSTSPERLAAALFDVAAESGLEGASVREVAKRAGVSIGAVQHHFSTKDEMFAFALRTLVDKLLARLSEVERGGDPARALFAAMSQLLPLDEARSREAHVMAAFAVRAATSPSLAEIRRKTLFTIRTGLSAVLIGIGTPEAETRAALLLATVDGLALDAIGSPALYPPEYLEHALDIQIGMILQGADVVPSSSIELAS | soluble
MGSDKIHHHHHHMQLNPSLIPHSSEQHVDWEKALHGGNDALLTQLAADDDPAAALLELESYINGIYRGSPSPLSKPLPDIRLEVRRALPYVDEIRDRLGWQVRDFDLGLLRLIRGSSTLSPVLGAGVSMDAGAPSWPELVRLMLEETLDKGLEFYESVPAADNPAQPPIEFLPDGTVRTGGTGTWRFEQRVSEVKRYTAEQEQTARNVLAEVKAKGSSTDVETLMHGAQVCYDLCGQHLFRLLTKIIYTRAKEPSEVHRVIAELAQAQEVPVRGPGLFPGWDSIITYNIDALMSEALAEQKIPHAAWAMKGDKLRGNPDELAQKSSWHEPIFHLHGFSPRRLFMITNVRFVFSTSQYLTTYKGPRSRILEAVYDEFLANPVRIALYIGCSFADEAMNGLLREAFAEYPGRYHYALLKWPRDRKGKEPDRSEIAAESAKYLEFGVRPIWFDDFAELPGLIRQLQ | not soluble
MAGDPMTELEMHLLNALEQLQQDYTQRLKDWESPFTDLQHMFELTRQENGQLREQCDDLSQQVQRLAGQVDHLSRLFITNSRLEHHHHHH | not soluble
MYKFVLIASLLVALCMAAPPRQESEAERIEREEYEKYQNENAQYSFNSSVDDKINDGQISRNEEREGGTVRGSYSYFDGFVKRRVEYIADKDGYRVLKDEIEDVGNGPSFNPDGIANVEGSMIGKYSIKLDKADDDKHYKDIHALEHHHHHH | not soluble
DNSVDLYFLMGLSGSAQGHLSNVQTLGSDLLKALNEISRSGRIGFGSIVNMTFQHILKLTADSSQFQRELRKQLVSGKLATPKGQLDAVVQVAICLGEIGWRNGTRFLVLVTDNDFHLAKDKTLGTRQNTSDGRCHLDDGMYRSRGEPDYQSVVQLASKLAENNIQPIFVVPSRMVKTYEKLTTFIPKLTIGELSDDSSNVAQLIRNAYSKL | soluble
